Measured values reported in the RNAGym collection of RNA variant scans (doi:10.1073/pnas.2313332121).

B1: TPR t1 (parent)
chain: GACCAAUCUGCCCUCAGAGCUCGAGAACAUCUUCGGAUGCAGAGGAGGCAGGCUUCGGUGGCGCGAUAGCGCCAACGUCCUCAACCUCCAAUGCAUCCCACCACAUGAUGAUGCCUGAAGAGCCUUGGUUUUUUG

Variants of: B1
Assay: polymerase ribozyme fitness, log enrichment relative to wild type (log ratio); higher = more active; in vitro selection for triplet polymerase activity
Outline: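 Mutant libraries were PCR-built and transcribed for each subunit of a heterodimeric triplet polymerase ribozyme and selected for one round in triplicate at −7 °C, frozen, before gel excision of extended constructs and streptavidin-bead capture. Input and output libraries were Illumina-sequenced, keeping genotypes with ≥10 input reads and ≥1 read per output. Fitness is a logarithmic ratio of genotype to wild-type enrichment, in base 2, using inverse-variance-weighted replicate averages.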

Row | Variant | polymerase ribozyme fitness (log ratio)
1 | U78G A90C | -1.6
2 | A6U C76G C98U | -1.31
3 | C12G C13U G19U G44C C73A G93A | -4.75
4 | U21G C22A A27U A95U C123A | -5.39
5 | A2U C11U G69A | -4.07
6 | C20A C79A U131A | -3.6
7 | A2C C72U G117A | -3.25
8 | U9A C31U G44U G52U G61U A111U | -6.18
9 | C53G C114U G122A | -2.38
10 | G122A U129C | -0.808
11 | C73G C114U | -3.1
12 | U87G U96G C99U | -2.81
13 | G17A U55C G61U G113A U130C | -5.74
14 | C13G G71C U112C G117C U125C | -5.67
15 | U9A C13U | 0.446
16 | U32C A46U | -1.51
17 | G25C G58A C64A A83C G110C | -6.43
18 | C4G G110C | -5.58
19 | U38G A46U G110U | -4.8
20 | A16C C79G | -4.14
21 | C53U G120A | 0.773

Row | Variant | polymerase ribozyme fitness (log ratio)
22 | C13U G45A C79G | -1.83
23 | A43C G47U U112A G135A | -1.87
24 | C20G G47C | -5.65
25 | G10C G42C G61C C123A G128A | -6.33
26 | G77A C79G A100U G113U C123G | -6.77
27 | C12U U33G C123G | -4.3
28 | G69U G110C U125C | -1.52
29 | C4G U9G G10C | -0.357
30 | C8G G113A | 0.074
31 | C11G U109A G110C | -4.59
32 | C88G A111C | 0.0984
33 | G58A C72U | 0.786
34 | G36U G44U | -2.24
35 | C20U A46G C94U G107A U109G G120A | -5.88
36 | U14A C124A | -0.31
37 | G39A | -0.485
38 | C34A A37U C82G | -4.35
39 | G17A U59C G69U G120U | -2.26
40 | C8G C49A U54C G122U | 0.439
41 | A6U G44U U87A A91C C97U | -1.94
42 | C13U U116C | 1.02

Row | Variant | polymerase ribozyme fitness (log ratio)
43 | C22U A43U C86U | -5.15
44 | G113C U129A | -3.5
45 | U116G U129G | -4.36
46 | C76G U78A | 0.247
47 | G17U A18G C56G A84G U131G | -5.98
48 | U38C | -0.501
49 | A29C G63C U78A U92A G120C | -5.6
50 | G25U C104U | -5.92
51 | A41G A103C | -5.33
52 | C13U C53U | 0.405
53 | A6C C13G G69A | -3.82
54 | G60A C79U C98G C99A C123G | -2.67
55 | U92C G120U G127A | -0.833
56 | C72G G127U | -1.1
57 | A16U C64A C89A A111G U130G | -5.81
58 | G52A C94A | -1.72
59 | A74U U87G U106G A121U | -0.122
60 | C34A G110U A118U | -6.14
61 | C3U C53A G71A U78A | -0.343
62 | U81C C115A G128C U131G | -4.42
63 | G60A A111C C123A | -1.91

Row | Variant | polymerase ribozyme fitness (log ratio)
64 | C11A C49U C102A | -3.16
65 | C56G A90C A121G | 1.01
66 | G48C G113U C123A | -4.5
67 | G45U C94U A111U G127U | -3.61
68 | A121G U129C | 0.0991
69 | U54G G69U | -0.782
70 | C8A C20U G60A C88A | -1.93
71 | C20U C72A C102U U109A C114A U133G | -5.73
72 | C28A G60C | -4.02
73 | U7G A118G | 0.686
74 | G10C C64U A121U U131A | 1.16
75 | C49G C56A G71A G93C | -6.41
76 | U92A C98U | -4.66
77 | U9A G69C G113C C115U | -4.52
78 | G69U G113A | -0.285
79 | G120A G135U | 0.435
80 | G44U G110A | -2.64
81 | C8A G45C A105U | -1.9
82 | U9C C99U | -1.75
83 | G117C C124A G127U | -4.29
